Test [1] addresses T1, His-tagged human CD73 ECD (human, UniProt P21589 27-549).
T1 construct: runs as a homodimer of about 124-125 kDa in SEC-MALS; also called CD73-His; CD73-His ECD antigen
T1 sequence: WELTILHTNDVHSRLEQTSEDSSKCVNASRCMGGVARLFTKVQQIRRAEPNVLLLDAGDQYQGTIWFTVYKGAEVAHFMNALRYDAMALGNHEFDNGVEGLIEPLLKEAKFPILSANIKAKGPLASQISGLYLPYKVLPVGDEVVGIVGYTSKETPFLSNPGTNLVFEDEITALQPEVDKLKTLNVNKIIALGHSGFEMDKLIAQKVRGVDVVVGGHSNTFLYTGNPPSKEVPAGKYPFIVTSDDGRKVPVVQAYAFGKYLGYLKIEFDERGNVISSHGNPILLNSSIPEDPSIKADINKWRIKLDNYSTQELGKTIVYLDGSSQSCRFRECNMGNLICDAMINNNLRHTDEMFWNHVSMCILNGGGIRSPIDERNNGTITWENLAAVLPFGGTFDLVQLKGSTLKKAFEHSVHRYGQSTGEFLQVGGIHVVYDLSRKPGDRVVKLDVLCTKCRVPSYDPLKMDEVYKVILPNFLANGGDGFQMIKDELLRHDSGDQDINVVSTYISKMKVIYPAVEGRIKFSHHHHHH
The test is described as follows: SEC-MALS, mAb:CD73 0.1:1. On the procedure:
(§1) Anti-CD73 antibodies and His-tagged CD73 were analyzed in different ratios as well as individually to analyze the size of complexes formed between CD73 homodimer and anti-CD73 antibodies. Samples were prepared by mixing […] of CD73-His with 900, 450, 90 or 0 μmol of antibody diluted into PBS, pH 7.4. Samples were incubated for 30 min at room temperature followed by separation using a UHPLC UltiMate 3000 (Thermo Scientific) and SEC X-Bridge column (Waters) at a flow rate of 1.2 mL/min. Sample running buffer was 0.01 M Citrate, 250 mM L-Arginine.HCl, pH 6.0. Following HPLC separation, all samples were analyzed using a MiniDAWN TREOS MALS detector (Wyatt) and Optilab T-rEX refractive index detector (Wyatt). Data plots were generated using Graph Pad Prism.
A general note: In gel filtration, larger molecules generally elute earlier.

The target of test [2] is T2, His-tagged cynomolgus CD73 ECD (cynomolgus monkey (Macaca fascicularis)).
T2 chain: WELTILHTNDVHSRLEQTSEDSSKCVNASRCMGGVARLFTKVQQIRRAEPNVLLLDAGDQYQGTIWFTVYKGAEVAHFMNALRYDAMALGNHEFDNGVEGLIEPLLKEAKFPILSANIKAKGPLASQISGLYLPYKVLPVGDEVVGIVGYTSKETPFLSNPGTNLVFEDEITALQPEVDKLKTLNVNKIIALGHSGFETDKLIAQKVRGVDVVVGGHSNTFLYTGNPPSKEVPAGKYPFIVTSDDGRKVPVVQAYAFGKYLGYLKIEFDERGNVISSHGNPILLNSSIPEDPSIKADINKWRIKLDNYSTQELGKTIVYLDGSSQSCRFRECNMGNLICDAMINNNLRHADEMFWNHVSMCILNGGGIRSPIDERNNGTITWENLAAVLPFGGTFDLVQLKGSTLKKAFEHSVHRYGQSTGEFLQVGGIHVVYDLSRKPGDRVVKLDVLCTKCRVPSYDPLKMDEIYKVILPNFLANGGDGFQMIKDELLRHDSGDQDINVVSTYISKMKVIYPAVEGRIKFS
The test is described as follows: SPR, mAb captured, His-tagged CD73 ECD injected. On the procedure:
(§2) Kinetic binding analysis of anti-CD73 mAbs and Fab fragments was performed by Surface Plasmon Resonance (SPR), using a Continuous Flow Microspotter (CFM, Wasatch Microfluidics, Salt Lake City, US) combined with an IBIS MX96 SPR instrument (IBIS Technologies, The Netherlands). CD73 cDNAs coding for the extracellular domains of human and cynomolgus CD73 were synthesized and each cloned into a vector containing a CMV promoter and either a C-terminal 6× histidine sequence (SEQ ID NO: 45) for His-tagged CD73 ECD, or a human IgG1 Fc sequence (AA P101-K330), resulting in fusion of IgG1 Fc C-terminally to the cloned CD73 ECD. The His-tagged and Fc-fusion constructs were transiently expressed using an ExpiCHO™ expression system and purified either by standard Ni-NTA chromatography or standard MabSelect™ SuRe™ procedures, respectively. Anti-CD73 Fab fragments were generated by digesting full-length IgG1 antibodies with GingisKHAN enzyme, using a kit provided by Genovis (Sweden). Affinities of Fab fragments were measured by capturing Fc-tagged antigens on a G-a-hu-IgG Fc SensEye® for 15 minutes using the CFM. After spotting, the SensEye® was positioned in the IBIS MX96 biosensor and immobilized antigens were fixed by SensEye FixIt kit. Kinetic analysis was performed by injecting monomeric Fab fragments at increasing concentrations from 0.8 nM to 300 nM. After each cycle of Fab fragment injection, the surface was regenerated by 10 mM glycine pH 3, 10% glycerol. Fab association was performed for 15 minutes and antigen dissociation was performed for 15 minutes. Affinities of full-length monoclonal antibodies (mAbs) were measured by capturing mAbs on a G-a-hu-IgG Fc SensEye® (Ssens BV, The Netherlands) for 15 minutes using a Continuous Flow Microspotter (CFM, Wasatch Microfluidics, Salt Lake City, US). After spotting, the SensEye was docked in the IBIS MX96 and spotted mAbs were fixed by SensEye FixIt kit (Ssens BV, The Netherlands). Kinetic analysis was performed by applying a kinetic titration series injecting increasing concentrations of His-tagged antigens from 0.16 nM to 10 nM as 2-fold dilutions. The surface was regenerated before the next cycle of cynomolgus antigen injections by 100 mM H₃PO₄, pH 3. MAb association was performed for 15 minutes and antigen dissociation was performed for 45 minutes.
A general note: SPR reads the build-up and loss of mass on a sensor chip optically.

The target in test [3] is T1, His-tagged human CD73 ECD. As to the kind of experiment: SPR, mAb captured, His-tagged CD73 ECD injected. On the procedure:
as §2

In test [4] the target is T1, His-tagged human CD73 ECD. As to the kind of experiment: SEC-MALS, mAb:CD73 0.5:1. On the procedure: as §1
Test [5] has as its target T1, His-tagged human CD73 ECD. As to the kind of experiment: SEC-MALS, mAb:CD73 1:1. On the procedure: as §1
Test [6] deals with T3, human CD73 ECD fused C-terminally to human IgG1 Fc (human, UniProt P21589 27-549, limits assumed).
T3 construct: Expressed in ExpiCHO; also called Hs CD73 ECD; Fc-tagged antigen
T3 sequence: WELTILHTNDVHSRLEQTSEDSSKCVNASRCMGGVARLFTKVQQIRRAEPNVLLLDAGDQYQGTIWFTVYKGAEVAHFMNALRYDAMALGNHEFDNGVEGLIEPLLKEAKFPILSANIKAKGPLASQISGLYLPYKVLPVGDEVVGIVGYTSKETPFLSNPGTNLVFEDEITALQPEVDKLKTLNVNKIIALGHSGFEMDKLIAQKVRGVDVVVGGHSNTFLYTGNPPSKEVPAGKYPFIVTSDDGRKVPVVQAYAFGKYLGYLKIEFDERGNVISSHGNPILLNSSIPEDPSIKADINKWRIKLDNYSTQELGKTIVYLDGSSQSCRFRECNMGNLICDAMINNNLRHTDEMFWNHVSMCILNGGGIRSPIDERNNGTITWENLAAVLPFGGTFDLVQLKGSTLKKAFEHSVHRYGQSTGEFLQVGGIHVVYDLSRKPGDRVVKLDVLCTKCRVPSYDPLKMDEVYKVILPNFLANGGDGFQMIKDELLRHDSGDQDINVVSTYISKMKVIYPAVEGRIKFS
The test is described as follows: SPR, Fc-tagged CD73 ECD captured, Fab injected. On the procedure:
as §2

For test [7], the target named is T4, cynomolgus CD73 ECD fused C-terminally to human IgG1 Fc (cynomolgus monkey (Macaca …, UniProt A0A2K5V5U7 27-549)).
T4 construct: also called Cy CD73 ECD; Fc-tagged antigen; not shown: Human IgG1 Fc (printed as AA P101-K330) fused to the C-terminus of the ECD, and any linker
T4 sequence: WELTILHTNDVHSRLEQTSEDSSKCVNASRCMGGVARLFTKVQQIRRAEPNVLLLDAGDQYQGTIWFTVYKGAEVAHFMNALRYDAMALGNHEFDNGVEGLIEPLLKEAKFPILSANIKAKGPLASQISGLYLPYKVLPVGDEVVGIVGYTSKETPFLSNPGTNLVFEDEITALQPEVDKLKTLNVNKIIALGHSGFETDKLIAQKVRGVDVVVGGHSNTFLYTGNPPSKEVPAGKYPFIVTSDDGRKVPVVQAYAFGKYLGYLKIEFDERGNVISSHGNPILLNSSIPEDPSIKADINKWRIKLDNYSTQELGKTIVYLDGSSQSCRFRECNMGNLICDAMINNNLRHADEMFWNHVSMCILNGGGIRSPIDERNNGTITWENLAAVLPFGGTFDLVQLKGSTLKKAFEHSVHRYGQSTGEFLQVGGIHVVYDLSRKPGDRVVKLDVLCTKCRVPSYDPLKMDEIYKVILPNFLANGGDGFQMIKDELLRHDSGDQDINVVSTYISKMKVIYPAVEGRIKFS
The test is described as follows: SPR, Fc-tagged CD73 ECD captured, Fab injected. On the procedure: as §2

B1: antibody 21163 (antibody, human IgG1, kappa, L234A L235A, V domains shown)
VH: EVQLVESGGGLVQPGGSLRLSCAASGFSFSTYWMNWVRQAPGKGLEWVANIKQDGSEKYYVDSVKGRFTISRDNAKNSLYLQMNSLRAEDTAVYYCARDISSSWFYYYGMDVWGQGTTVTVSS
VL: DIQLTQSPSFLSASVGDRVTITCRASQGISSYLAWYQQKPGKAPKLLIYAASTLQSGVPSRFSGSGSGTEFTLTISSLQPEDFATYYCQQLNSYPPTFGGGTKVEIKR
notes: Fully human IgG1-LALA (L234A/L235A), kappa
With B1, the figures for the “molecular mass of complex, Peak 2 (MW, kDa)” value in test [1], in test [4] and in test [5] were 279 kDa, 278 kDa and 280 kDa, respectively. Further, the Kd in test [2] stood at 0.66 nM; in test [3], 0.91 nM. Besides, the koff in test [2] came to 6.2e-05 s⁻¹; in test [3], 5.5e-05 s⁻¹. For the same molecule, the results for the kon in test [2] and in test [3] were 100000 M⁻¹ s⁻¹ and 65000 M⁻¹ s⁻¹, respectively.

B2: 21046 Fab fragment (Fab, V domains shown, not shown: small tags and cut ends)
VH: EVQLVESGGGLVQPGRSLRLSCVASGFTFDDYAMHWVRQAPGKGLEWVSGISWNSGSIGYADSVKGRFTISRDNAKNSLYLQMNSLRAEDTAFYYCAQGGYAILTALEYWGQGTLVTVSS
VL: DIQMTQSPSSLSASVGDRVTITCRASQGISNYLAWFQQKPGKAPKSLIYAASSLQSGVPSKFSGSGSGTDFTLTISSLQPEDFATYYCQQYNSYPLTFGGGTKVEIKR
notes: Made by digesting the full-length IgG1 with GingisKHAN enzyme (Genovis)
Regarding B2, in test [6], the affinity, expressed as Kd, was 0.8 nM; the koff stood at 0.0005 s⁻¹; the kon amounted to 610000 M⁻¹ s⁻¹. For the same molecule, in test [7], the Kd amounted to 0.8 nM, the koff was determined as 0.00052 s⁻¹ and the kon is 620000 M⁻¹ s⁻¹.

B3: 21163 Fab fragment (Fab, V domains shown, not shown: small tags and cut ends)
VH: EVQLVESGGGLVQPGGSLRLSCAASGFSFSTYWMNWVRQAPGKGLEWVANIKQDGSEKYYVDSVKGRFTISRDNAKNSLYLQMNSLRAEDTAVYYCARDISSSWFYYYGMDVWGQGTTVTVSS
VL: DIQLTQSPSFLSASVGDRVTITCRASQGISSYLAWYQQKPGKAPKLLIYAASTLQSGVPSRFSGSGSGTEFTLTISSLQPEDFATYYCQQLNSYPPTFGGGTKVEIKR
notes: as for B2
With B3, in test [6], the dissociation constant Kd turned out to be 78.3 nM, the off-rate (koff) is 0.015 s⁻¹ and the kon was 200000 M⁻¹ s⁻¹. In test [7], this molecule showed a Kd of 77.6 nM, an off-rate constant (koff) of 0.016 s⁻¹ and an association rate constant (kon) of 200000 M⁻¹ s⁻¹.

For orientation: Kd means the equilibrium constant for the complex coming apart. In general, koff refers to the first-order rate constant of dissociation. As usually defined, the kon is a measure of how fast the partners come together.

Source of the values: patent US20210070876A1 (LES LABORATOIRES SERVIER, published 2021).
